# Measured values: PMC6902050, “OXA-830, a Novel Chromosomally Encoded Extended-Spectrum Class D β-Lactamase in Aeromonas simiae” (Frontiers in Microbiology, 2019)
# Experiments:
# OXA-830 = target: T1, OXA-830 (Aeromonas simiae, UniProt A0A5K1KBV9); assay: inhibition of benzylpenicillin hydrolysis, UV-VIS spectrophotometry; format: biochemical
# T1 construct: gene blaOXA; predicted signal peptide cleavage 22/23
# [1] = tested on: CC(C)(O/N=C(\C(=O)N[C@@H]1C(=O)N2C(C(=O)[O-])=C(C[n+]3ccccc3)CS[C@H]12)c1csc(N)n1)C(=O)O; assay: initial hydrolysis rates, UV-VIS spectrophotometry, Michaelis-Menten fit; format: biochemical, Aeromonas simiae; settings: 10 mM phosphate buffer pH 7.0, 30°C
# Source text: (§1) initial hydrolysis rates, UV-VIS spectrophotometry, Michaelis-Menten fit on OXA-830
# [2] = tested on: CC1(C)S[C@@H]2[C@H](NC(=O)Cc3ccccc3)C(=O)N2[C@H]1C(=O)O; assay: as above; format: biochemical, Aeromonas simiae; settings: 10 mM phosphate buffer pH 7.0, 30°C
# Source text: as §1
# [3] = tested on: CC1(C)S[C@@H]2[C@H](NC(=O)[C@H](C(=O)O)c3ccsc3)C(=O)N2[C@H]1C(=O)O; assay: as above; format: biochemical, Aeromonas simiae; settings: 10 mM phosphate buffer pH 7.0, 30°C
# Source text: as §1
# [4] = tested on: CC1(C)S[C@@H]2[C@H](NC(=O)[C@H](N)c3ccccc3)C(=O)N2[C@H]1C(=O)O; assay: as above; format: biochemical, Aeromonas simiae; settings: 10 mM phosphate buffer pH 7.0, 30°C
# Source text: as §1
# [5] = tested on: CCN1CCN(C(=O)N[C@@H](C(=O)N[C@@H]2C(=O)N3[C@@H]2SC(C)(C)[C@@H]3C(=O)O)c2ccccc2)C(=O)C1=O; assay: as above; format: biochemical, Aeromonas simiae; settings: 10 mM phosphate buffer pH 7.0, 30°C
# Source text: as §1
# [6] = tested on: CO[C@@]1(NC(=O)Cc2cccs2)C(=O)N2C(C(=O)O)=C(COC(N)=O)CS[C@@H]21; assay: as above; format: biochemical, Aeromonas simiae; settings: 10 mM phosphate buffer pH 7.0, 30°C
# Source text: as §1
# [7] = tested on: Cc1nnc(SCC2=C(C(=O)O)N3C(=O)[C@@H](NC(=O)Cn4cnnn4)[C@H]3SC2)s1; assay: as above; format: biochemical, Aeromonas simiae; settings: 10 mM phosphate buffer pH 7.0, 30°C
# Source text: as §1
# [8] = tested on: Cc1onc(-c2ccccc2)c1C(=O)N[C@@H]1C(=O)N2[C@@H]1SC(C)(C)[C@@H]2C(=O)O; assay: as above; format: biochemical, Aeromonas simiae; settings: 10 mM phosphate buffer pH 7.0, 30°C
# Source text: as §1
# [9] = tested on: Cc1onc(-c2ccccc2Cl)c1C(=O)N[C@@H]1C(=O)N2[C@@H]1SC(C)(C)[C@@H]2C(=O)O; assay: as above; format: biochemical, Aeromonas simiae; settings: 10 mM phosphate buffer pH 7.0, 30°C
# Source text: as §1
# T1 sequence (A0A5K1KBV9 entry or part of it): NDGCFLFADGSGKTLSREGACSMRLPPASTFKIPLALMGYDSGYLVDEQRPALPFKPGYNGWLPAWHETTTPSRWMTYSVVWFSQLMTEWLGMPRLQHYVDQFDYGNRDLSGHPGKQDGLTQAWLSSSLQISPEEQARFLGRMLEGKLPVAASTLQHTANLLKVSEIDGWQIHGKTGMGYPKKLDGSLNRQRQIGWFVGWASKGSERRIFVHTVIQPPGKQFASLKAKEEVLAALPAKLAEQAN
compound,measurement,setting,value
O=C(O)[C@H]1/C(=C/CO)O[C@@H]2CC(=O)N21 [clavulanic acid],IC50,OXA-830,260 ± 20 nM
CC1(C)[C@H](C(=O)O)N2C(=O)C[C@H]2S1(=O)=O [sulbactam],IC50,OXA-830,50 ± 10 nM
C[C@]1(Cn2ccnn2)[C@H](C(=O)O)N2C(=O)C[C@H]2S1(=O)=O [tazobactam],IC50,OXA-830,70 ± 20 nM
OXA-830 (Aeromonas simiae),Km,[1],61 µM
same,kcat,[1],2.04 s⁻¹
same,kcat/Km,[1],33000 M⁻¹ s⁻¹
same,Km,[2],540 µM
same,kcat,[2],527 s⁻¹
same,kcat/Km,[2],980000 M⁻¹ s⁻¹
same,Km,[3],208 µM
same,kcat,[3],227 s⁻¹
same,kcat/Km,[3],1.09e+06 M⁻¹ s⁻¹
same,Km,[4],188 µM
same,kcat,[4],444 s⁻¹
same,kcat/Km,[4],2.36e+06 M⁻¹ s⁻¹
same,Km,[5],233 µM
same,kcat,[5],413 s⁻¹
same,kcat/Km,[5],1.77e+06 M⁻¹ s⁻¹
same,Km,[6],76 µM
same,kcat,[6],2.79 s⁻¹
same,kcat/Km,[6],37000 M⁻¹ s⁻¹
same,Km,[7],975 µM
same,kcat,[7],715 s⁻¹
same,kcat/Km,[7],730000 M⁻¹ s⁻¹
same,Km,[8],722 µM
same,kcat,[8],1240 s⁻¹
same,kcat/Km,[8],1.72e+06 M⁻¹ s⁻¹
same,Km,[9],737 µM
same,kcat,[9],1030 s⁻¹
same,kcat/Km,[9],1.4e+06 M⁻¹ s⁻¹
